# Measured values as given in patent US20230272390A1, “COMPOSITIONS AND METHODS FOR HEMOGLOBIN PRODUCTION” (THE CHILDREN'S HOSPITAL OF PHILADELPHIA, priority 2020, published 2023).
# T1: endogenous ZNF410 (Homo sapiens, UniProt Q86VK4)
# T1 construct: endogenous in cells; host or cells: HUDEP-2 (HUDEP-2-Cas9) cells, differentiated
# T1 sequence (Q86VK4 1-478): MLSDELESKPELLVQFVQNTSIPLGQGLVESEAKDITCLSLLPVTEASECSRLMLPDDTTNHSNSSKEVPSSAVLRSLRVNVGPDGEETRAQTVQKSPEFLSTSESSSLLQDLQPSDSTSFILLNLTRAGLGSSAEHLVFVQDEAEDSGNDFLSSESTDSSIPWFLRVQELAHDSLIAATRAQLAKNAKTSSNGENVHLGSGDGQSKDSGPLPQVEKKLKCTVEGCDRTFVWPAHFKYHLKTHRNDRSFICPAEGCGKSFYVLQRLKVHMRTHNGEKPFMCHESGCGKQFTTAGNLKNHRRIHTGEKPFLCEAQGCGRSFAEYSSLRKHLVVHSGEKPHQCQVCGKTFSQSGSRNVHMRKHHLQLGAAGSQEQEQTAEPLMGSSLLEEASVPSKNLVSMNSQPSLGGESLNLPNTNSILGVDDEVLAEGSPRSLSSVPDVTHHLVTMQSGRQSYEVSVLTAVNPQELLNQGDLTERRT
# B1: ZF1-5: fragment of human ZNF410 comprising five zinc finger domains ZF1-5 (residues 217-366); dominant-negative when overexpressed (protein)
# chain: KKLKCTVEGCDRTFVWPAHFKYHLKTHRNDRSFICPAEGCGKSFYVLQRLKVHMRTHNGEKPFMCHESGCGKQFTTAGNLKNHRRIHTGEKPFLCEAQGCGRSFAEYSSLRKHLVVHSGEKPHQCQVCGKTFSQSGSRNVHMRKHHLQLG
# modifications: left off: small tags and cut ends
# notes: fragment of human ZNF410 comprising five zinc finger domains ZF1-5 (residues 217-366); dominant-negative when overexpressed
# Molecular target: T1, endogenous ZNF410
# Assay: RT-qPCR in HUDEP-2 cells overexpressing HA-tagged ZNF410 constructs
# Type: cell-based
# Description: HUDEP-2 cells were cultured and differentiated as described (Kurita, et al. (2013) PLoS One 8:e59890). Briefly, StemSpan™ Serum-Free Expansion Medium (SFEM) supplemented with 50 ng/ml human stem cell factor (SCF), 10 μM dexamethasone, 1 μg/ml doxycycline, 3 IU/ml erythropoietin and 1% penicillin/streptomycin was utilized for routine cell maintenance. Cell density was kept at 0.1-1×10^6/ml. HUDEP-2 cells were differentiated for 6-7 days in IMDM supplemented with 50 ng/ml human SCF, 3 IU/ml erythropoietin, 2.5% fetal bovine serum, 250 μg/ml holo-transferrin, 10 ng/ml heparin, 10 μg/ml insulin, 1 μg/ml doxycycline and 1% penicillin/streptomycin.
# SgRNAs were cloned into a lentiviral U6-sgRNA-EFS-GFP/mCherry expression vector (LRG, Addgene: #65656) by BsmBI digestion. The ZNF410 cDNA (clone ID: OHu10535), CHD4 cDNA (clone ID: OHu28780) were purchased from GenScript and were sub-cloned into a lentiviral vector pSDM101-IRES-GFP. ZNF410 variants were sub-cloned into pSDM101-IRES-GFP vector. The N-terminal HA tag was introduced by PCR. For EMSA, the ZNF410 full length or different ZF versions were sub-cloned into mammalian expression vector pcDNA3.
# Lentivirus was produced as described (Grevet, et al. (2018) Science 361:285-290). Briefly, 10-20 μg of expression vectors, 5-10 μg of pVSVG (pMD2.G) and 7.5-15 μg of psPAX2 package plasmids, and 80 μl of 1 mg/ml polyethylenimine (PEI) were mixed, incubated for 15-20 minutes, and added to HEK293T cells grown in 10 cm plates to above 90% confluence. Media were replaced 6-8 hours post transfection, virus was collected 24 hours and 48 hours post-transfection and pooled. For infection, virus-containing supernatant was mixed with the indicated cell lines with 8 μg/ml polybrene and 10 mM HEPES, and then spun at 2250 rpm for 1.5 hours at room temperature. Infected HUDEP-2 cells were selected for mCherry+ or GFP+ cell sorting at 48 hours post-infection.
# Total RNA was purified using the RNeasy® Plus Mini Kit (Qiagen), including an on-column DNAse treatment using RNase-free DNase set (Qiagen) to remove genomic DNA. Reverse transcription was accomplished using iScript™ Supermix (Bio-Rad). qPCR reactions were prepared with Power SYBR® Green (ThermoFisher Scientific). Quantification was performed using the ΔΔCT method.
# Overexpression of ZF1-5 but not ZF2-4 should compete with endogenous ZNF410 for chromatin binding, thus acting in a dominant-negative manner. To test this hypothesis, a construct containing HA-tagged ZF1-5 or ZF2-4 driven by the EF1α promoter was introduced via lentiviral infection into HUDEP-2 cells. As control, the expression of full-length HA-tagged ZNF410 was forced. […] Moreover, full-length HA-ZNF410 when overexpressed to similar levels to HA-ZF1-5 also produced similar binding patterns (FIG. 4A). […] Thus, the ZF region is sufficient for chromatin occupancy but insufficient for CHD4 gene activation. […] Finally, the impact of ZNF410 expression on γ-globin levels was also measured.
# [1] = overexpression in HUDEP-2 cells
molecule,measurement,setting,value
B1,effect on expression of the other 6 ZNF410 bound genes,[1],did not impact
same,reduction of CHD4 mRNA levels compared to control,[1],approximately 70%
same,effect on γ-globin mRNA levels,overexpression in differentiated HUDEP-2 cells,significant increase
